In PMC5179001:

System: RovA (Yersinia pseudotuberculosis (YPIII?))
Test: EMSA
Conditions: […]) at 25 C or 37 C, buffer

Substance “rovA promoter fragment BS I (activating site)” has a K half of 6.01 nM.
Substance “rovA promoter fragment BS II (repressing site)” has a K half of 40.7 nM.
